Test results reported in US20230106247A1 (L AND L BIO CO LTD NINGBO CHINA, published 2023).

Key:
human Sirpα-V1-hFc = target: T1, human Sirpα-V1-hFc (human, UniProt P78324 31-373); experiment: blocking ELISA, competitor CD47-his
T1 construct: range 31-373; also called hSirpα (dimer); hSirpα-V1-hFc (dimer); not shown: human IgG1 Fc region at the C-terminus
Experimental: (§1) The antigens PD-1 and Sirpα expressed according to the method of Example 1 were diluted with a PBS buffer at pH7.4 to a concentration of 2 μg/mL, added into a 96-well ELISA plate (Corning, CLS3590-100EA) at a volume of 50 μL/well, and incubated at 37° C. for 2 hours. After the liquid was discarded, the wells were added with a blocking solution of 5% skimmed milk (Sangon Biotech (Shanghai) Co., Ltd., A600669-0250) formulated with PBS at 200 μL/well, and incubated at 37° C. for 3 hours for blocking. […] The plate was washed with PBST for 5 times, added with 50 μL/well of HRP-labeled secondary antibody (GenScript Biotechnology Co., Ltd., M00091) diluted at 1:1000, and incubated at 37° C. for 1 hour. The plated was washed with PBST for 5 times, then added with 50 μl/well of TMB chromogenic substrate (KPL, 52-00-03), incubated at room temperature for 5-10 min, added with 50 μl/well of 1 M H₂SO₄ to stop the reaction, and read by a […] Go microplate reader (ThermoFisher, 51119200) for the absorbance value at 450 nm, and then IC₅₀ was calculated according to the OD value.

[1] = target: T2, human PD-1 (recombinant, hFc/his tag) (human, UniProt Q15116 21-167); experiment: blocking ELISA, competitor PD-L1
T2 construct: not shown: hFc or his tag
Experimental: as §1

human Sirpα-V1-his [2] = target: T3, human Sirpα-V1-his (human, UniProt P78324 31-373); experiment: blocking ELISA, competitor CD47-hFc
T3 construct: range 31-373; Bought (Sino Biological 11612-H08H) or expressed in-house; also called hSirpα-V1; hSirpα-V1-his
Experimental: as §1

[3] = target: T2, human PD-1 (recombinant, hFc/his tag); experiment: ELISA
Experimental: (§2) The self-expressed human PD-1, Sirpα and the like antigens of the present disclosure were diluted with a PBS buffer at pH7.4 to a concentration of 2 μg/mL according to different assays, and then added into a 96-well ELISA plate (Corning, CLS3590-100EA) at a volume of 50 μL/well, and placed in an incubator at 37° C. for 2 hours. After the liquid was discarded, the wells were added with a blocking solution of 5% skimmed milk (Sangon Biotech (Shanghai) Co., Ltd., A600669-0250) diluted with PBS at 200 μL/well, and incubated in an incubator at 37° C. for 3 hours, or placed overnight at 4° C. (for 16-18 hours) for blocking. The blocking solution was discarded, and the plate was washed with a PBST buffer (pH7.4 PBS containing 0.05% tween-20) for 5 times, then added with 50 μL/well of 5-fold serial dilution of the antibody to be tested in 1% BSA, and incubated at 37° C. for 1 hour. […] The plated was washed with PBST for 5 times, then added with 50 μL/well of TMB chromogenic substrate (KPL, 52-00-03), incubated at room temperature for 5-10 min, added with 50 μL/well of 1 M H₂SO₄ to stop the reaction, and read by a […] Go microplate reader (ThermoFisher, 51119200) for the absorbance value at 450 nm, and then EC₅₀ was calculated according to the OD value.
(§3) The aforementioned bispecific antibodies were cloned, expressed and purified according to the cloning, expression and purification methods of Example 1 of the present disclosure.

human Sirpα-V1-his [4] = target: T3, human Sirpα-V1-his; experiment: ELISA
Experimental: as §2, §3

B1: bispecific antibody LB503 (bispecific antibody, human IgG4 S228P, kappa)
light: EIVLTQSPATLSLSPGERATLSCRASKGVSTSGYSYLHWYQQKPGQAPRLLIYLASYLESGVPARFSGSGSGTDFTLTISSLEPEDFAVYYCQHSRDLPLTFGGGTKVEIKRTVAAPSVFIFPPSDEQLKSGTASVVCLLNNFYPREAKVQWKVDNALQSGNSQESVTEQDSKDSTYSLSSTLTLSKADYEKHKVYACEVTHQGLSSPVTKSFNRGECAGGGGSGGGGSGGGGSQVQLVQSGAEVKKPGASVKVSCKASGYNFNIYWINWVRQAPGQGLEWIGNIYPSSISTNYNEKFKTRATLTVDKSTSTVYMELSSLRSEDTAVYYCARSEGTYYGGRYEGDWFGYWGQGTLVTVSSGGGGSGGGGSGGGGSDIQMTQSPSSLSASVGDRVTITCRASQDIRNYLNWYQQKPGKAPKLLIYFTSTLHSGVPSRFSGSGSGTDFTLTISSLQPEDFATYYCQQGNTLPWTFGGGTKVEIK
heavy: not shown
notes: mab14-h16 scFv at the C-terminus of the Pem light chain
IC50 (human Sirpα-V1-hFc): 4.8 nM | IC50 [1]: 1.45 nM | IC50 (human Sirpα-V1-his [2]): 7.63 nM | EC50 [3]: 0.063 nM | EC50 (human Sirpα-V1-his [4]): 0.075 nM

B2: bispecific antibody LB502 (bispecific antibody, human IgG4 S228P, kappa)
light: EIVLTQSPATLSLSPGERATLSCRASKGVSTSGYSYLHWYQQKPGQAPRLLIYLASYLESGVPARFSGSGSGTDFTLTISSLEPEDFAVYYCQHSRDLPLTFGGGTKVEIKRTVAAPSVFIFPPSDEQLKSGTASVVCLLNNFYPREAKVQWKVDNALQSGNSQESVTEQDSKDSTYSLSSTLTLSKADYEKHKVYACEVTHQGLSSPVTKSFNRGEC
heavy: not shown
notes: mab14-h16 scFv at the N-terminus of the Pem heavy chain
IC50 (human Sirpα-V1-hFc): 3.78 nM | IC50 [1]: 2 nM | IC50 (human Sirpα-V1-his [2]): 5.37 nM | EC50 [3]: 0.074 nM | EC50 (human Sirpα-V1-his [4]): 0.066 nM

B3: bispecific antibody LB504 (bispecific antibody, human IgG4 S228P, kappa)
light: EIVLTQSPATLSLSPGERATLSCRASKGVSTSGYSYLHWYQQKPGQAPRLLIYLASYLESGVPARFSGSGSGTDFTLTISSLEPEDFAVYYCQHSRDLPLTFGGGTKVEIKRTVAAPSVFIFPPSDEQLKSGTASVVCLLNNFYPREAKVQWKVDNALQSGNSQESVTEQDSKDSTYSLSSTLTLSKADYEKHKVYACEVTHQGLSSPVTKSFNRGEC
heavy: not shown
notes: mab14-h16 scFv at the C-terminus of the Pem heavy chain
IC50 (human Sirpα-V1-hFc): 4.62 nM | IC50 [1]: 1.09 nM | IC50 (human Sirpα-V1-his [2]): 6.63 nM | EC50 [3]: 0.061 nM | EC50 (human Sirpα-V1-his [4]): 0.055 nM

B4: bispecific antibody LB501 (bispecific antibody, human IgG4 S228P, kappa)
light: DIQMTQSPSSLSASVGDRVTITCRASQDIRNYLNWYQQKPGKAPKLLIYFTSTLHSGVPSRFSGSGSGTDFTLTISSLQPEDFATYYCQQGNTLPWTFGGGTKVEIKGGGGSGGGGSGGGGSQVQLVQSGAEVKKPGASVKVSCKASGYNFNIYWINWVRQAPGQGLEWIGNIYPSSISTNYNEKFKTRATLTVDKSTSTVYMELSSLRSEDTAVYYCARSEGTYYGGRYEGDWFGYWGQGTLVTVSSGGGGSGGGGSGGGGSEIVLTQSPATLSLSPGERATLSCRASKGVSTSGYSYLHWYQQKPGQAPRLLIYLASYLESGVPARFSGSGSGTDFTLTISSLEPEDFAVYYCQHSRDLPLTFGGGTKVEIKRTVAAPSVFIFPPSDEQLKSGTASVVCLLNNFYPREAKVQWKVDNALQSGNSQESVTEQDSKDSTYSLSSTLTLSKADYEKHKVYACEVTHQGLSSPVTKSFNRGEC
heavy: not shown
notes: mab14-h16 scFv at the N-terminus of the Pem light chain
IC50 (human Sirpα-V1-hFc): 2.55 nM | IC50 [1]: 1.3 nM | IC50 (human Sirpα-V1-his [2]): 5.42 nM | EC50 [3]: 0.075 nM | EC50 (human Sirpα-V1-his [4]): 0.059 nM
